The supplement of paper PMC9112550, “Optimization of the antimicrobial peptide Bac7 by deep mutational scanning” (BMC Biology, 2022)

What follows are sequences tested on Escherichia coli TOP10 (assay: shrunken log2 fold change of peptide-encoding DNA abundance (4.5 h post-induction vs induction); higher = less antimicrobial activity (less host growth inhibition)). Conditions: time post-induction: 4.5 h; library: site-saturation at positions 5, 18, 19, 20.
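Further: peptides expressed intracellularly from a pBAD plasmid library in pooled LB shake-flask culture, induced with 0.3% L-arabinose, DNA abundance read by NGS, three biological replicates, DESeq2 with apeglm shrinkage.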

Sequence | shrunken log2 fold change
RRIRFRPPRLPRPRPRPDLQPRP | -0.0778
RRIRFRPPRLPRPRPRPDPFPRP | -0.341
RRIRFRPPRLPRPRPRPDQAPRP | -0.0167
RRIRFRPPRLPRPRPRPDTHPRP | -0.618
RRIRFRPPRLPRPRPRPDTMPRP | -0.0817
RRIRFRPPRLPRPRPRPDVDPRP | 0.0167
RRIRFRPPRLPRPRPRPDWLPRP | -0.0152
RRIRFRPPRLPRPRPRPDWMPRP | -0.0628
RRIRFRPPRLPRPRPRPDWPPRP | -0.0836
RRIRFRPPRLPRPRPRPDYAPRP | -1.13
RRIRFRPPRLPRPRPRPEADPRP | 0.24
RRIRFRPPRLPRPRPRPEATPRP | 0.565
RRIRFRPPRLPRPRPRPEDEPRP | 0.0432
RRIRFRPPRLPRPRPRPEEDPRP | -0.185
RRIRFRPPRLPRPRPRPEGWPRP | 0.807
RRIRFRPPRLPRPRPRPEGYPRP | 0.0525
RRIRFRPPRLPRPRPRPEIIPRP | -0.0938
RRIRFRPPRLPRPRPRPEKCPRP | 0.00859
RRIRFRPPRLPRPRPRPEKFPRP | 0.012
RRIRFRPPRLPRPRPRPEKGPRP | 0.0184
RRIRFRPPRLPRPRPRPEKHPRP | 0.176
RRIRFRPPRLPRPRPRPELRPRP | -0.0629
RRIRFRPPRLPRPRPRPENKPRP | -0.422
RRIRFRPPRLPRPRPRPEQLPRP | 0.178
RRIRFRPPRLPRPRPRPEQQPRP | 0.171

Sequence | shrunken log2 fold change
RRIRFRPPRLPRPRPRPEQWPRP | -0.156
RRIRFRPPRLPRPRPRPERVPRP | 0.094
RRIRFRPPRLPRPRPRPERWPRP | 0.462
RRIRFRPPRLPRPRPRPESMPRP | -0.188
RRIRFRPPRLPRPRPRPESPPRP | 0.00789
RRIRFRPPRLPRPRPRPETRPRP | 0.159
RRIRFRPPRLPRPRPRPETSPRP | 0.0493
RRIRFRPPRLPRPRPRPETVPRP | 0.0039
RRIRFRPPRLPRPRPRPEVNPRP | 0.0557
RRIRFRPPRLPRPRPRPEVQPRP | 0.00737
RRIRFRPPRLPRPRPRPEWCPRP | 0.0522
RRIRFRPPRLPRPRPRPEWDPRP | 0.168
RRIRFRPPRLPRPRPRPFANPRP | -0.124
RRIRFRPPRLPRPRPRPFAPPRP | 0.0349
RRIRFRPPRLPRPRPRPFCCPRP | -0.225
RRIRFRPPRLPRPRPRPFCDPRP | -0.352
RRIRFRPPRLPRPRPRPFCHPRP | -0.433
RRIRFRPPRLPRPRPRPFCNPRP | -0.196
RRIRFRPPRLPRPRPRPFCPPRP | -0.386
RRIRFRPPRLPRPRPRPFDWPRP | 0.109
RRIRFRPPRLPRPRPRPFEGPRP | 0.0456
RRIRFRPPRLPRPRPRPFHQPRP | -0.192
RRIRFRPPRLPRPRPRPFIDPRP | -0.389
RRIRFRPPRLPRPRPRPFIKPRP | -0.648
RRIRFRPPRLPRPRPRPFIQPRP | -0.707

Sequence | shrunken log2 fold change
RRIRFRPPRLPRPRPRPFKIPRP | -0.049
RRIRFRPPRLPRPRPRPFKSPRP | 0.0901
RRIRFRPPRLPRPRPRPFLIPRP | -0.304
RRIRFRPPRLPRPRPRPFMKPRP | 1.71
RRIRFRPPRLPRPRPRPFMLPRP | -0.66
RRIRFRPPRLPRPRPRPFMQPRP | -0.675
RRIRFRPPRLPRPRPRPFNCPRP | -0.113
RRIRFRPPRLPRPRPRPFPEPRP | -0.363
RRIRFRPPRLPRPRPRPFQCPRP | -0.0784
RRIRFRPPRLPRPRPRPFQSPRP | -0.00947
RRIRFRPPRLPRPRPRPFRDPRP | -0.276
RRIRFRPPRLPRPRPRPFRFPRP | -0.129
RRIRFRPPRLPRPRPRPFSCPRP | -0.599
RRIRFRPPRLPRPRPRPFSMPRP | -0.232
RRIRFRPPRLPRPRPRPFTDPRP | -0.0297
RRIRFRPPRLPRPRPRPFTKPRP | -0.411
RRIRFRPPRLPRPRPRPFTTPRP | -0.445
RRIRFRPPRLPRPRPRPFVKPRP | -0.457
RRIRFRPPRLPRPRPRPFVNPRP | -1.51
RRIRFRPPRLPRPRPRPFYDPRP | -0.0631
RRIRFRPPRLPRPRPRPFYIPRP | -0.489
RRIRFRPPRLPRPRPRPGCCPRP | 0.258
RRIRFRPPRLPRPRPRPGCNPRP | -0.292
RRIRFRPPRLPRPRPRPGELPRP | 0.245
RRIRFRPPRLPRPRPRPGHMPRP | -0.0911

Sequence | shrunken log2 fold change
RRIRFRPPRLPRPRPRPGHTPRP | -0.445
RRIRFRPPRLPRPRPRPGIWPRP | 0.125
RRIRFRPPRLPRPRPRPGMGPRP | 0.102
RRIRFRPPRLPRPRPRPGNDPRP | -0.512
RRIRFRPPRLPRPRPRPGPFPRP | 0.14
RRIRFRPPRLPRPRPRPGPSPRP | 0.764
RRIRFRPPRLPRPRPRPGQCPRP | -0.114
RRIRFRPPRLPRPRPRPGQMPRP | 0.172
RRIRFRPPRLPRPRPRPGWCPRP | 0.109
RRIRFRPPRLPRPRPRPGWGPRP | 0.076
RRIRFRPPRLPRPRPRPGWSPRP | 0.114
RRIRFRPPRLPRPRPRPHAKPRP | 0.229
RRIRFRPPRLPRPRPRPHASPRP | -0.259
RRIRFRPPRLPRPRPRPHCGPRP | -0.308
RRIRFRPPRLPRPRPRPHCHPRP | -0.59
RRIRFRPPRLPRPRPRPHEAPRP | -0.377
RRIRFRPPRLPRPRPRPHFCPRP | -1.02
RRIRFRPPRLPRPRPRPHFIPRP | -0.473
RRIRFRPPRLPRPRPRPHFWPRP | -0.124
RRIRFRPPRLPRPRPRPHGNPRP | -0.414
RRIRFRPPRLPRPRPRPHHEPRP | -0.515
RRIRFRPPRLPRPRPRPHHRPRP | -0.401
RRIRFRPPRLPRPRPRPHKNPRP | -0.389
RRIRFRPPRLPRPRPRPHKPPRP | 0.14
RRIRFRPPRLPRPRPRPHKRPRP | 0.0127

Sequence | shrunken log2 fold change
RRIRFRPPRLPRPRPRPHLCPRP | -0.0692
RRIRFRPPRLPRPRPRPHLTPRP | -0.226
RRIRFRPPRLPRPRPRPHMCPRP | -1.24
RRIRFRPPRLPRPRPRPHMSPRP | 0.0344
RRIRFRPPRLPRPRPRPHMVPRP | -0.809
RRIRFRPPRLPRPRPRPHNDPRP | -0.81
RRIRFRPPRLPRPRPRPHPLPRP | -0.16
RRIRFRPPRLPRPRPRPHQPPRP | 0.575
RRIRFRPPRLPRPRPRPHSDPRP | -0.129
RRIRFRPPRLPRPRPRPHSSPRP | -0.194
RRIRFRPPRLPRPRPRPHTWPRP | -0.415
RRIRFRPPRLPRPRPRPHYNPRP | -0.786
RRIRFRPPRLPRPRPRPIANPRP | -0.0564
RRIRFRPPRLPRPRPRPIEKPRP | -0.0389
RRIRFRPPRLPRPRPRPIEQPRP | 0.0187
RRIRFRPPRLPRPRPRPIERPRP | 0.116
RRIRFRPPRLPRPRPRPIGAPRP | 0.064
RRIRFRPPRLPRPRPRPIICPRP | 0.12
RRIRFRPPRLPRPRPRPIKEPRP | -0.113
RRIRFRPPRLPRPRPRPILHPRP | -0.75
RRIRFRPPRLPRPRPRPINPPRP | -1.08
RRIRFRPPRLPRPRPRPIQFPRP | -0.000317
RRIRFRPPRLPRPRPRPIWLPRP | -0.17
RRIRFRPPRLPRPRPRPKAFPRP | 0.133
RRIRFRPPRLPRPRPRPKCKPRP | 0.00614

Sequence | shrunken log2 fold change
RRIRFRPPRLPRPRPRPKDQPRP | 0.0707
RRIRFRPPRLPRPRPRPKEIPRP | -0.0277
RRIRFRPPRLPRPRPRPKEKPRP | -0.0715
RRIRFRPPRLPRPRPRPKFPPRP | -0.0265
RRIRFRPPRLPRPRPRPKFWPRP | 0.265
RRIRFRPPRLPRPRPRPKKDPRP | 0.184
RRIRFRPPRLPRPRPRPKKSPRP | 0.158
RRIRFRPPRLPRPRPRPKMYPRP | -0.815
RRIRFRPPRLPRPRPRPKNSPRP | -0.533
RRIRFRPPRLPRPRPRPKNWPRP | 0.31
RRIRFRPPRLPRPRPRPKNYPRP | -0.525
RRIRFRPPRLPRPRPRPKPQPRP | 0.384
RRIRFRPPRLPRPRPRPKPTPRP | 0.879
RRIRFRPPRLPRPRPRPKPWPRP | 0.489
RRIRFRPPRLPRPRPRPKSVPRP | 0.0124
RRIRFRPPRLPRPRPRPKTMPRP | -0.197
RRIRFRPPRLPRPRPRPKVCPRP | 0.0321
RRIRFRPPRLPRPRPRPKWLPRP | 0.251
RRIRFRPPRLPRPRPRPKWTPRP | -0.196
RRIRFRPPRLPRPRPRPKYWPRP | -0.176
RRIRFRPPRLPRPRPRPLANPRP | 0.0332
RRIRFRPPRLPRPRPRPLCEPRP | -0.166
RRIRFRPPRLPRPRPRPLCHPRP | -0.271
RRIRFRPPRLPRPRPRPLDKPRP | -0.103
RRIRFRPPRLPRPRPRPLDMPRP | -0.372
